In publication doi:10.1101/2024.10.11.617910 one finds limit of detection (LoD) data, which are given here for two substances.

The target in test [1] is pyroglutamate beta-amyloid peptide (pGlu3-Aβ). Nature of the test: SiMoA.
The target in the next test is beta-amyloid 42 peptide (UniProt P05067). Nature of the test: SiMoA.

In turn, Donanemab (antibody) came in with a limit of detection (LoD) in test [1] of 5 pM.

On to Aducanumab (antibody), for which the limit of detection (LoD) in the test with beta-amyloid 42 peptide came out at 200 pM; in test [1] it was 56 pM.
